The results in this text go back to publication PMC10853767.

In the test the target is NLS-GS-HIStag-GS-dCas12e-ABI (ABI domain fused directly to dCas12e).

“HA-PYL1-linker-VP64-NLS (PYL1 fused to VP64) (domain or fragment)” displayed a yEGFP activation efficiency of the ABA-sensing YES gate with ABI fused directly to dCas12e and an unchanged sgRNA, circuit 3x; the pair is bridged by the small molecule ABA of 2.79 fold.
